Test results taken from article PMC10786891, “Massively parallel profiling of RNA-targeting CRISPR-Cas13d”.

T1: EsCas13d, nuclease-dead (Eubacterium siraeum, UniProt B0MS50, R295A;H300A;R849A;H854A)
T1 sequence: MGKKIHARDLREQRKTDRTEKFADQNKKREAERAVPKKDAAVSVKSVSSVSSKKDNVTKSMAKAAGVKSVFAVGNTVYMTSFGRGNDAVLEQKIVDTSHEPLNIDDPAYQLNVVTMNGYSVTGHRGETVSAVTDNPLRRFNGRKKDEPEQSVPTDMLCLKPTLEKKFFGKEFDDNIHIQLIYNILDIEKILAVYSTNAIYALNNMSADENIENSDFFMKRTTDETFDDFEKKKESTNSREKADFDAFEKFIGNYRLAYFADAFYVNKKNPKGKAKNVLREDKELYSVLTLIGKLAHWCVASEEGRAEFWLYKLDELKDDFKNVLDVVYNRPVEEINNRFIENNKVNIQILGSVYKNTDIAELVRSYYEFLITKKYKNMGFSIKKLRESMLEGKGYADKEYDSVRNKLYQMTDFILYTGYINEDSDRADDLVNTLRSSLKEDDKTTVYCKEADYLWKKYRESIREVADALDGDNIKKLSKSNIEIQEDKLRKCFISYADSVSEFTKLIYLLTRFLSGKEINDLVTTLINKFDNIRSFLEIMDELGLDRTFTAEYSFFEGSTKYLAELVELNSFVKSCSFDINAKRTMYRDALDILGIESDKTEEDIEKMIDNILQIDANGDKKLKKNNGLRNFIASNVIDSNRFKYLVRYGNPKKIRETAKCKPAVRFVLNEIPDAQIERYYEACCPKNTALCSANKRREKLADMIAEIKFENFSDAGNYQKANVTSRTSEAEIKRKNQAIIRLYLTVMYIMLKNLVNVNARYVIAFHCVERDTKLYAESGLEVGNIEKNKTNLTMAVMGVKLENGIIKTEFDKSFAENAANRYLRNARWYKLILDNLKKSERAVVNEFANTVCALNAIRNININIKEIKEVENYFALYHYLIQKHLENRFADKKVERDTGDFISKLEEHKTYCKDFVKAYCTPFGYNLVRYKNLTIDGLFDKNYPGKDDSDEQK

B1: target 3 G3C,U22A (mixed)
RNA 1: CACCCGUGCAAAAUUGCAGGGGUCUAAAACGACCUGAAUAUUUCAGAUCAAA
RNA 2: GGGAAUGGAUCCACAUCUACGAAUUCGUUAUUGAUCUGAAAUAUUCAGCUCUGCAGAUCGGAAGAGCACACGU
B2: target 3 U2G,A5U (mixed)
RNA 1: CACCCGUGCAAAAUUGCAGGGGUCUAAAACGACCUGAAUAUUUCAGAUCAAA
RNA 2: GGGAAUGGAUCCACAUCUACGAAUUCGUUUUUGAUCUGAAAUAUUCUGGGCUGCAGAUCGGAAGAGCACACGU
B3: target 3 G4C,A5C (mixed)
RNA 1: CACCCGUGCAAAAUUGCAGGGGUCUAAAACGACCUGAAUAUUUCAGAUCAAA
RNA 2: GGGAAUGGAUCCACAUCUACGAAUUCGUUUUUGAUCUGAAAUAUUCCCGUCUGCAGAUCGGAAGAGCACACGU
B4: target 3 insU 3' of 3,insG 3' of 2 (mixed)
RNA 1: CACCCGUGCAAAAUUGCAGGGGUCUAAAACGACCUGAAUAUUUCAGAUCAAA
RNA 2: GGGAAUGGAUCCACAUCUACGAAUUCGUUUUUGAUCUGAAAUAUUCAGGUUGCUGCAGAUCGGAAGAGCACACGU
B5: target 3 insU 3' of 22,insC 3' of 8 (mixed)
RNA 1: CACCCGUGCAAAAUUGCAGGGGUCUAAAACGACCUGAAUAUUUCAGAUCAAA
RNA 2: GGGAAUGGAUCCACAUCUACGAAUUCGUUUUUUGAUCUGAAAUAUCUCAGGUCUGCAGAUCGGAAGAGCACACGU
B6: target 3 insA 3' of 22,insA 3' of 3 (mixed)
RNA 1: CACCCGUGCAAAAUUGCAGGGGUCUAAAACGACCUGAAUAUUUCAGAUCAAA
RNA 2: GGGAAUGGAUCCACAUCUACGAAUUCGUUUAUUGAUCUGAAAUAUUCAGGAUCUGCAGAUCGGAAGAGCACACGU
B7: target 3 insA 3' of 15,insG 3' of 2 (mixed)
RNA 1: CACCCGUGCAAAAUUGCAGGGGUCUAAAACGACCUGAAUAUUUCAGAUCAAA
RNA 2: GGGAAUGGAUCCACAUCUACGAAUUCGUUUUUGAUCUAGAAAUAUUCAGGUGCUGCAGAUCGGAAGAGCACACGU
B8: target 3 insU 3' of 19 (mixed)
RNA 1: CACCCGUGCAAAAUUGCAGGGGUCUAAAACGACCUGAAUAUUUCAGAUCAAA
RNA 2: GGGAAUGGAUCCACAUCUACGAAUUCGUUUUUGUAUCUGAAAUAUUCAGGUCUGCAGAUCGGAAGAGCACACGU
B9: target 3 A18G,U22A (mixed)
RNA 1: CACCCGUGCAAAAUUGCAGGGGUCUAAAACGACCUGAAUAUUUCAGAUCAAA
RNA 2: GGGAAUGGAUCCACAUCUACGAAUUCGUUAUUGGUCUGAAAUAUUCAGGUCUGCAGAUCGGAAGAGCACACGU
B10: target 3 U2G,A18G (mixed)
RNA 1: CACCCGUGCAAAAUUGCAGGGGUCUAAAACGACCUGAAUAUUUCAGAUCAAA
RNA 2: GGGAAUGGAUCCACAUCUACGAAUUCGUUUUUGGUCUGAAAUAUUCAGGGCUGCAGAUCGGAAGAGCACACGU
B11: target 3 insC 3' of 7,insC 3' of 2 (mixed)
RNA 1: CACCCGUGCAAAAUUGCAGGGGUCUAAAACGACCUGAAUAUUUCAGAUCAAA
RNA 2: GGGAAUGGAUCCACAUCUACGAAUUCGUUUUUGAUCUGAAAUAUUCCAGGUCCUGCAGAUCGGAAGAGCACACGU
B12: target 3 A5U,U7A (mixed)
RNA 1: CACCCGUGCAAAAUUGCAGGGGUCUAAAACGACCUGAAUAUUUCAGAUCAAA
RNA 2: GGGAAUGGAUCCACAUCUACGAAUUCGUUUUUGAUCUGAAAUAUACUGGUCUGCAGAUCGGAAGAGCACACGU
B13: target 3 insC 3' of 11,insC 3' of 2 (mixed)
RNA 1: CACCCGUGCAAAAUUGCAGGGGUCUAAAACGACCUGAAUAUUUCAGAUCAAA
RNA 2: GGGAAUGGAUCCACAUCUACGAAUUCGUUUUUGAUCUGAAACUAUUCAGGUCCUGCAGAUCGGAAGAGCACACGU
B14: target 3 C1A,U10G (mixed)
RNA 1: CACCCGUGCAAAAUUGCAGGGGUCUAAAACGACCUGAAUAUUUCAGAUCAAA
RNA 2: GGGAAUGGAUCCACAUCUACGAAUUCGUUUUUGAUCUGAAAGAUUCAGGUAUGCAGAUCGGAAGAGCACACGU
B15: target 3 G4U,U21G (mixed)
RNA 1: CACCCGUGCAAAAUUGCAGGGGUCUAAAACGACCUGAAUAUUUCAGAUCAAA
RNA 2: GGGAAUGGAUCCACAUCUACGAAUUCGUUUGUGAUCUGAAAUAUUCAUGUCUGCAGAUCGGAAGAGCACACGU
B16: target 3 insU 3' of 5,insC 3' of 4 (mixed)
RNA 1: CACCCGUGCAAAAUUGCAGGGGUCUAAAACGACCUGAAUAUUUCAGAUCAAA
RNA 2: GGGAAUGGAUCCACAUCUACGAAUUCGUUUUUGAUCUGAAAUAUUCAUGCGUCUGCAGAUCGGAAGAGCACACGU
B17: target 3 G3U,G4A (mixed)
RNA 1: CACCCGUGCAAAAUUGCAGGGGUCUAAAACGACCUGAAUAUUUCAGAUCAAA
RNA 2: GGGAAUGGAUCCACAUCUACGAAUUCGUUUUUGAUCUGAAAUAUUCAAUUCUGCAGAUCGGAAGAGCACACGU
B18: target 3 insG 3' of 2 (mixed)
RNA 1: CACCCGUGCAAAAUUGCAGGGGUCUAAAACGACCUGAAUAUUUCAGAUCAAA
RNA 2: GGGAAUGGAUCCACAUCUACGAAUUCGUUUUUGAUCUGAAAUAUUCAGGUGCUGCAGAUCGGAAGAGCACACGU
B19: target 3 C6A,U8A (mixed)
RNA 1: CACCCGUGCAAAAUUGCAGGGGUCUAAAACGACCUGAAUAUUUCAGAUCAAA
RNA 2: GGGAAUGGAUCCACAUCUACGAAUUCGUUUUUGAUCUGAAAUAAUAAGGUCUGCAGAUCGGAAGAGCACACGU
B20: target 3 insU 3' of 4,insC 3' of 3 (mixed)
RNA 1: CACCCGUGCAAAAUUGCAGGGGUCUAAAACGACCUGAAUAUUUCAGAUCAAA
RNA 2: GGGAAUGGAUCCACAUCUACGAAUUCGUUUUUGAUCUGAAAUAUUCAGUGCUCUGCAGAUCGGAAGAGCACACGU
B21: target 3 insU 3' of 22,insU 3' of 11 (mixed)
RNA 1: CACCCGUGCAAAAUUGCAGGGGUCUAAAACGACCUGAAUAUUUCAGAUCAAA
RNA 2: GGGAAUGGAUCCACAUCUACGAAUUCGUUUUUUGAUCUGAAAUUAUUCAGGUCUGCAGAUCGGAAGAGCACACGU
B22: target 3 C6A,A11G (mixed)
RNA 1: CACCCGUGCAAAAUUGCAGGGGUCUAAAACGACCUGAAUAUUUCAGAUCAAA
RNA 2: GGGAAUGGAUCCACAUCUACGAAUUCGUUUUUGAUCUGAAGUAUUAAGGUCUGCAGAUCGGAAGAGCACACGU
B23: target 3 C1G,C6G (mixed)
RNA 1: CACCCGUGCAAAAUUGCAGGGGUCUAAAACGACCUGAAUAUUUCAGAUCAAA
RNA 2: GGGAAUGGAUCCACAUCUACGAAUUCGUUUUUGAUCUGAAAUAUUGAGGUGUGCAGAUCGGAAGAGCACACGU
B24: target 3 U2G,C6G (mixed)
RNA 1: CACCCGUGCAAAAUUGCAGGGGUCUAAAACGACCUGAAUAUUUCAGAUCAAA
RNA 2: GGGAAUGGAUCCACAUCUACGAAUUCGUUUUUGAUCUGAAAUAUUGAGGGCUGCAGAUCGGAAGAGCACACGU
B25: target 3 insA 3' of 3,insA 3' of 3 (mixed)
RNA 1: CACCCGUGCAAAAUUGCAGGGGUCUAAAACGACCUGAAUAUUUCAGAUCAAA
RNA 2: GGGAAUGGAUCCACAUCUACGAAUUCGUUUUUGAUCUGAAAUAUUCAGGAAUCUGCAGAUCGGAAGAGCACACGU
B26: target 1 U3A,U8G (mixed)
RNA 1: CACCCGUGCAAAAAUGCAGGGGUCUAAAACUGAGCGGAUAACCUCUCUAUGG
RNA 2: GGGAAUGGAUCCACAUCUACGAAUUCGUACCAUAGAGAGGUUAGCCGCACACCGAGAUCGGAAGAGCACACGU
B27: target 1 insU 3' of 21,insC 3' of 1 (mixed)
RNA 1: CACCCGUGCAAAAAUGCAGGGGUCUAAAACUGAGCGGAUAACCUCUCUAUGG
RNA 2: GGGAAUGGAUCCACAUCUACGAAUUCGUACCUAUAGAGAGGUUAUCCGCUCACCCGAGAUCGGAAGAGCACACGU
B28: target 1 U10C,U19C (mixed)
RNA 1: CACCCGUGCAAAAAUGCAGGGGUCUAAAACUGAGCGGAUAACCUCUCUAUGG
RNA 2: GGGAAUGGAUCCACAUCUACGAAUUCGUACCACAGAGAGGUCAUCCGCUCACCGAGAUCGGAAGAGCACACGU

What follows are binders tested against T1, EsCas13d, nuclease-dead (assay: crRNA (strand 1, pre-loaded); Mg2+; 40 mM Tris-HCl pH 7.5, 150 mM NaCl, 6 mM MgCl2, 1 mM DTT, 0.1% Tween-20, 0.2 mg/ml BSA; 25 C; 10 min per concentration, then washed). Details: tags: His6-TwinStrep-SUMO cleaved; N-terminal SNAP kept (SNAP-Surface 488); label: 3' end held by stalled T7 RNA polymerase.

With B1 as the binder, how does the Kd read?
Its Kd is 16.5 ± 1.4 nM.

B2 was tested. Which Kd did it give?
The Kd was 9.2 ± 1.2 nM.

With B3 as the binder, how does the Kd read?
Its Kd is 130 ± 40 nM.

For B4, which Kd is on record?
Its Kd is 27 ± 4.5 nM.

Which Kd does the source give for B5 here?
Its Kd is 106 ± 32 nM.

With B6 as the binder, how does the Kd read?
The Kd was 22.2 ± 4.4 nM.

With B7 as the binder, how does the Kd read?
The Kd was 68.5 ± 21.5 nM.

B8 was tested. Which Kd did it give?
Its Kd is 78 ± 29.5 nM.

With B9 as the binder, how does the Kd read?
Its Kd is 14.8 ± 1.75 nM.

Which Kd does the source give for B10 here?
Its Kd is 59.5 ± 7.5 nM.

How did the Kd turn out when B11 was run?
The Kd was about 120 nM.

Which Kd does the source give for B12 here?
The Kd was 62.4 ± 5.4 nM.

With B13 as the binder, how does the Kd read?
The Kd was 67 ± 10 nM.

How did the Kd turn out when B14 was run?
Its Kd is about 90.5 nM.

B15 was tested. Which Kd did it give?
The Kd was 65 ± 14 nM.

For B16, which Kd is on record?
Its Kd is 6.45 ± 0.65 nM.

How did the Kd turn out when B17 was run?
Its Kd is 7.75 ± 1.05 nM.

B18 was tested. Which Kd did it give?
Its Kd is 37.1 ± 3.7 nM.

For B19, which Kd is on record?
The Kd was 59 ± 8.5 nM.

Which Kd does the source give for B20 here?
Its Kd is 17.4 ± 1.7 nM.

How did the Kd turn out when B21 was run?
The Kd was 62 ± 19.5 nM.

With B22 as the binder, how does the Kd read?
The Kd was 98 ± 23 nM.

How did the Kd turn out when B23 was run?
The Kd was 18.7 ± 3.15 nM.

Which Kd does the source give for B24 here?
Its Kd is 21.8 ± 2.7 nM.

For B25, which Kd is on record?
The Kd was 15.5 ± 1.65 nM.

B26 was tested. Which Kd did it give?
Its Kd is 11.9 ± 0.5 nM.

For B27, which Kd is on record?
The Kd was 20.5 ± 0.8 nM.

How did the Kd turn out when B28 was run?
The Kd was 70 ± 12 nM.
